Measurements as given in the supplement of paper PMC10598134.
± gives the standard deviation.

Experiment: collision cross section of modified peptide (TIMS, N2, iRT-aligned); higher = larger / more extended gas-phase ion
Method: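 1/K0 was aligned run-wise to spiked iRT peptides and converted to CCS in N2 (Mason-Schamp). Values are the mean of 1-3 technical replicates for the most abundant feature at each charge state.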

[1] = charge state: 2, modification: Malonyl
[2] = charge state: 3, modification: Dimethyl (K)
[3] = charge state: 2, modification: Propionyl
[4] = charge state: 2, modification: Formyl
[5] = charge state: 2, modification: Methyl (R)
[6] = charge state: 3, modification: Methyl (R)
[7] = charge state: 3, modification: Formyl
[8] = charge state: 2, modification: Nitro (Y)
[9] = charge state: 2, modification: Dimethyl (K)
[10] = charge state: 2, modification: Acetyl (K)
[11] = charge state: 3, modification: Acetyl (K)
[12] = charge state: 3, modification: Citrullination (R)
[13] = charge state: 2, modification: Methyl (K)
[14] = charge state: 3, modification: Methyl (K)
[15] = charge state: 2, modification: Crotonyl
[16] = charge state: 2, modification: Glutarylation
[17] = charge state: 3, modification: Glutarylation
[18] = charge state: 2, modification: Butyryl
[19] = charge state: 3, modification: Butyryl
[20] = charge state: 2, modification: Biotin
[21] = charge state: 3, modification: Crotonyl
[22] = charge state: 2, modification: Citrullination (R)
[23] = charge state: 3, modification: GlyGly (K)
[24] = charge state: 2, modification: HexNAc (ST)
[25] = charge state: 3, modification: Malonyl
[26] = charge state: 2, modification: Phospho (Y)
[27] = charge state: 3, modification: Trimethyl (K)

Sequence: SNEEGSEEKGPEVR [_SNEEGSEEK(Malonyl)GPEVR_]
- collision cross section [1]: 402.09 ± 1.6 Å²

Sequence: ANEKTESSSAQQVAVSR [_ANEK(Dimethyl (K))TESSSAQQVAVSR_]
- collision cross section [2]: 490.79 ± 1.6 Å²

Sequence: SDDESSQKDIK [_SDDESSQK(Propionyl)DIK_]
- collision cross section [3]: 377.44 ± 0.33 Å²

Sequence: ISALQGKLSK [_ISALQGK(Malonyl)LSK_]
- collision cross section [1]: 349.78 ± 0.6 Å²

Sequence: VGVEVPDVNIEGPEGKLK [_VGVEVPDVNIEGPEGK(Formyl)LK_]
- collision cross section [4]: 455.9 ± 1.7 Å²

Sequence: LLALSGPGGGRGR [_LLALSGPGGGR(Methyl (R))GR_]
- collision cross section [5]: 387.94 ± 0.53 Å²
- collision cross section [6]: 446.53 ± 3.2 Å²

Sequence: SLIGKVDGTSHVTGK [_SLIGKVDGTSHVT(HexNAc (ST))GK_]
- collision cross section (charge state: 3, modification: HexNAc (ST)): 501.68 ± 0.18 Å²

Sequence: FDDTNPEKEEAK [_FDDTNPEK(Formyl)EEAK_]
- collision cross section [4]: 390.88 ± 0.55 Å²
- collision cross section [7]: 435.1 Å²

Sequence: TLQKQSVVYGGK [_TLQK(Malonyl)QSVVYGGK_]
- collision cross section [1]: 395.45 ± 1.1 Å²

Sequence: LNAIYQNNLTK [_LNAIY(Nitro (Y))QNNLTK_]
- collision cross section [8]: 384.56 ± 0.55 Å²

Sequence: ALASIDSKLNQAK [_ALASIDSK(Dimethyl (K))LNQAK_]
- collision cross section [9]: 412.97 ± 1.1 Å²
- collision cross section [2]: 457.79 ± 2.1 Å²

Sequence: SYGIPYIETSAK [_SY(Nitro (Y))GIPYIETSAK_]
- collision cross section [8]: 386.26 ± 0.17 Å²

Sequence: VTLEVGKVIQQGR [_VTLEVGK(Dimethyl (K))VIQQGR_]
- collision cross section [9]: 422.85 ± 1.4 Å²
- collision cross section [2]: 464.75 ± 1.6 Å²

Sequence: SPSDSGYSYETIGKTTK [_SPSDSGYSYETIGK(Acetyl (K))TTK_]
- collision cross section [10]: 448.1 ± 2.3 Å²
- collision cross section [11]: 524.63 ± 0.47 Å²

Sequence: DNNNSNNRGSYNR [_DNNNSNNR(Citrullination (R))GSYNR_]
- collision cross section [12]: 460.73 ± 2.9 Å²

Sequence: LAEEENKAK [_LAEEENK(hydroxyisobutyryl)AK_]
- collision cross section (charge state: 2, modification: hydroxyisobutyryl): 355.52 ± 0.78 Å²

Sequence: VGTASVLQPVKK [_VGTASVLQPVK(Malonyl)K_]
- collision cross section [1]: 381.57 ± 0.0073 Å²

Sequence: IVSGKDYNVTANSK [_IVSGK(Methyl (K))DYNVTANSK_]
- collision cross section [13]: 411.95 ± 2 Å²
- collision cross section [14]: 471.19 ± 3.6 Å²

Sequence: TVSKVDDFLANEAK [_TVSK(Crotonyl)VDDFLANEAK_]
- collision cross section [15]: 421.27 ± 0.55 Å²

Sequence: AAINQKLIETGER [_AAINQK(Gluratylation)LIETGER_]
- collision cross section [16]: 412.05 ± 1.1 Å²
- collision cross section [17]: 483.6 ± 2.4 Å²

Sequence: AGQKLIDVNHYAK [_AGQK(Acetyl (K))LIDVNHYAK_]
- collision cross section [10]: 429.91 ± 1.7 Å²
- collision cross section [11]: 479.89 ± 2.5 Å²

Sequence: GEVQVSDKER [_GEVQVSDK(Gluratylation)ER_]
- collision cross section [16]: 368.37 ± 8.3 Å²

Sequence: ANAIGRGAK [_ANAIGR(Methyl (R))GAK_]
- collision cross section [5]: 322.43 ± 1.8 Å²

Sequence: LTEKELAEAASK [_LTEK(Crotonyl)ELAEAASK_]
- collision cross section [15]: 394.89 ± 2.4 Å²

Sequence: TLQKQSVVYGGK [_TLQK(Gluratylation)QSVVYGGK_]
- collision cross section [16]: 399.42 ± 0.6 Å²

Sequence: LFVGGIKEDTEEHHLR [_LFVGGIK(Butyryl)EDTEEHHLR_]
- collision cross section [18]: 500.41 ± 0.28 Å²
- collision cross section [19]: 545.89 ± 1.3 Å²

Sequence: LFVGGIKEDTEEHHLR [_LFVGGIK(Formyl)EDTEEHHLR_]
- collision cross section [7]: 535.03 ± 1.3 Å²

Sequence: PSVGSQSNQAGQGKR [_PSVGSQSNQAGQGK(Methyl (K))R_]
- collision cross section [13]: 426.09 ± 2.3 Å²
- collision cross section [14]: 471.73 ± 2.8 Å²

Sequence: VPTTEKPTVTVNFR [_VPTTEK(Acetyl (K))PTVTVNFR_]
- collision cross section [10]: 421.49 ± 1.9 Å²
- collision cross section [11]: 507.52 ± 1 Å²

Sequence: LLFSNTAAQKLR [_LLFSNTAAQK(Methyl (K))LR_]
- collision cross section [13]: 416.21 ± 1.5 Å²
- collision cross section [14]: 479.76 ± 3.4 Å²

Sequence: ITLSKHQNVQLPR [_ITLSK(Methyl (K))HQNVQLPR_]
- collision cross section [13]: 432.38 Å²
- collision cross section [14]: 510.25 ± 21 Å²

Sequence: DLGKFQVATDALK [_DLGK(Crotonyl)FQVATDALK_]
- collision cross section [15]: 409.72 ± 0.55 Å²

Sequence: VTRYPILGIPQAHR [_VTR(Methyl (R))YPILGIPQAHR_]
- collision cross section [6]: 524.3 ± 0.78 Å²

Sequence: TQAYQDQKPGTSGLR [_TQAYQDQK(Biotin)PGTSGLR_]
- collision cross section [20]: 446.01 ± 0.23 Å²
- collision cross section (charge state: 3, modification: Biotin): 500.74 ± 0.34 Å²

Sequence: AAQASDLEKIHLDEK [_AAQASDLEK(Butyryl)IHLDEK_]
- collision cross section [18]: 463.03 ± 1.1 Å²
- collision cross section [19]: 499.42 ± 2.9 Å²

Sequence: GATVTRGVPPPPTVR [_GATVTR(Methyl (R))GVPPPPTVR_]
- collision cross section [6]: 512.38 ± 1.6 Å²

Sequence: IHNAENIQPGEQKYEYK [_IHNAENIQPGEQK(Crotonyl)YEYK_]
- collision cross section [21]: 531.58 ± 2.8 Å²

Sequence: GRGLPGPAESLR [_GR(Citrullination (R))GLPGPAESLR_]
- collision cross section [22]: 366.62 ± 0.53 Å²

Sequence: TPNLYIYSKK [_TPNLYIYSK(GlyGly (K))K_]
- collision cross section [23]: 446.34 ± 1.1 Å²

Sequence: LGTTPSVYGGAGGRGIR [_LGTTPSVYGGAGGR(Citrullination (R))GIR_]
- collision cross section [22]: 423 ± 0.56 Å²
- collision cross section [12]: 500.66 ± 24 Å²

Sequence: SDSGKPYYYNSQTK [_SDSGK(Butyryl)PYYYNSQTK_]
- collision cross section [18]: 426.68 ± 0.77 Å²

Sequence: PSVSTKLISK [_PSVSTK(Propionyl)LISK_]
- collision cross section [3]: 354.68 ± 0.33 Å²

Sequence: SSSAGGQGSYVPLLR [_SSS(HexNAc (ST))AGGQGSYVPLLR_]
- collision cross section [24]: 427.89 ± 0.57 Å²

Sequence: GGPGSTLSFVGKR [_GGPGSTLSFVGK(Gluratylation)R_]
- collision cross section [16]: 392.32 ± 0.52 Å²
- collision cross section [17]: 441.96 ± 5.9 Å²

Sequence: ASEALLKQLK [_ASEALLK(Acetyl (K))QLK_]
- collision cross section [10]: 373.11 ± 0.4 Å²

Sequence: LEEVTGKLQVAR [_LEEVTGK(Malonyl)LQVAR_]
- collision cross section [1]: 393.19 ± 0.021 Å²

Sequence: SGNLTEDDKHNNAK [_SGNLTEDDK(Gluratylation)HNNAK_]
- collision cross section [16]: 428.34 ± 1.5 Å²
- collision cross section [17]: 486.64 ± 2.8 Å²

Sequence: IPQEKCILQTDVK [_IPQEK(Formyl)CILQTDVK_]
- collision cross section [4]: 427.41 Å²

Sequence: DTGEKLTVAENEAETK [_DTGEK(Crotonyl)LTVAENEAETK_]
- collision cross section [15]: 449.13 ± 0.83 Å²

Sequence: ALYETELADAR [_ALY(Nitro (Y))ETELADAR_]
- collision cross section [8]: 387.94 ± 0.55 Å²

Sequence: VDIDVPDVNIEGPDAKLK [_VDIDVPDVNIEGPDAK(Acetyl (K))LK_]
- collision cross section [10]: 477.46 ± 4.2 Å²

Sequence: GEVGAGAGPGAQAGPSAKR [_GEVGAGAGPGAQAGPSAK(Malonyl)R_]
- collision cross section [1]: 415.94 ± 0.58 Å²
- collision cross section [25]: 468.8 ± 1.8 Å²

Sequence: LGNDFHTNKR [_LGNDFHTNK(GlyGly (K))R_]
- collision cross section (charge state: 2, modification: GlyGly (K)): 384.34 ± 1.5 Å²
- collision cross section [23]: 447.63 ± 1.2 Å²

Sequence: SGKFTQQDIDEAK [_SGK(Biotin)FTQQDIDEAK_]
- collision cross section [20]: 433.94 ± 2.7 Å²

Sequence: LDHLAEKFR [_LDHLAEK(Acetyl (K))FR_]
- collision cross section [10]: 371.59 ± 0.95 Å²
- collision cross section [11]: 438.53 ± 3.2 Å²

Sequence: SRFYSGFNSR [_SR(Citrullination (R))FYSGFNSR_]
- collision cross section [22]: 364.39 ± 0.53 Å²

Sequence: DYSQPTAAATVQDIK [_DYSQPTAAAT(HexNAc (ST))VQDIK_]
- collision cross section [24]: 449.73 ± 0.61 Å²

Sequence: LSSETYSQAK [_LSSETY(Phospho (Y))SQAK_]
- collision cross section [26]: 357.2 ± 0.065 Å²

Sequence: SHLRHAIPSAER [_SHLR(Methyl (R))HAIPSAER_]
- collision cross section [5]: 404.4 Å²
- collision cross section [6]: 477.29 ± 19 Å²

Sequence: GAEKTEVAEPR [_GAEK(Trimethyl (K))TEVAEPR_]
- collision cross section [27]: 447.07 ± 3.3 Å²

Sequence: SGGYGGSRDYYSSR [_SGGYGGSR(Methyl (R))DYYSSR_]
- collision cross section [6]: 475.52 ± 2 Å²

Sequence: ITLSKHQNVQLPR [_ITLSK(Butyryl)HQNVQLPR_]
- collision cross section [18]: 443.37 ± 0.53 Å²
- collision cross section [19]: 503.02 ± 28 Å²

Sequence: GEVGAGAGPGAQAGPSAKR [_GEVGAGAGPGAQAGPSAK(Crotonyl)R_]
- collision cross section [15]: 426.44 ± 0.55 Å²
- collision cross section [21]: 497.45 ± 1.2 Å²

Sequence: SGKFTQQDIDEAK [_SGK(Trimethyl (K))FTQQDIDEAK_]
- collision cross section (charge state: 2, modification: Trimethyl (K)): 408.18 ± 1.1 Å²
- collision cross section [27]: 472.62 ± 0.88 Å²

Sequence: VNALKNLQVK [_VNALK(Gluratylation)NLQVK_]
- collision cross section [16]: 376.79 ± 0.1 Å²

Sequence: LFVGGIKEDTEEHHLR [_LFVGGIK(Malonyl)EDTEEHHLR_]
- collision cross section [25]: 537.8 Å²

Sequence: PGGEGPQCEKTTDVK [_PGGEGPQCEK(Acetyl (K))TTDVK_]
- collision cross section [10]: 415.43 ± 2 Å²

Sequence: TLDEILQEKK [_TLDEILQEK(Butyryl)K_]
- collision cross section [18]: 383.05 ± 1.3 Å²
- collision cross section [19]: 449.71 ± 2 Å²

Sequence: LQLEIDQKK [_LQLEIDQK(Crotonyl)K_]
- collision cross section [15]: 366.56 Å²

Sequence: PGSPGPPGSPGPR [_PGSPGPPGSP(Hydroxyproline)GPR_]
- collision cross section (charge state: 2, modification: Hydroxyproline): 352.39 ± 1.1 Å²

Sequence: LQIASDENYK [_LQIASDENY(Phospho (Y))K_]
- collision cross section [26]: 374.64 ± 0.77 Å²
